Reference: patent publication US20240360176A1 (MARSHALL UNIVERSITY RESEARCH, published 2024)

Molecular target: Src kinase (human, endogenous in the HCC cell lines HEP3B and SNU475) (human, UniProt P12931 2-536, phosphorylation read out with a polyclonal antibody to Tyr419 of Src kinase)
Experiment: cell-based or functional assay

B1: pNaKtide (peptide)
peptide: not shown
cell proliferation (MTT assay), IC50, Hep3 cells: 62.5 µM
cell proliferation (MTT assay), IC50, SNU475 cells: 6 µM
